Reference: the supplement of paper PMC5998384

How the values were obtained:
[1] = test system: HeLa Kyoto; test: solubility in G1/S (NP-40 vs SDS abundance) (log2 ratio); higher = more soluble; conditions: cell cycle stage: G1/S
[2] = test system: HeLa Kyoto; test: solubility change mitosis vs G1/S (difference of NP-40 vs SDS log2 ratios) (log2 ratio difference); higher = more soluble in mitosis
[3] = test system: HeLa Kyoto; test: thermal stability score vs G1/S (z-score of summed log2 fold changes over temperatures); higher = more thermally stable than in G1/S
[4] = test system: HeLa Kyoto; test: melting temperature (median over replicates), in situ; higher = more thermally stable
[5] = cell cycle stage: early G1 (4.5 h after nocodazole release)
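Throughout, for melting temperature (median over replicates), in situ: HeLa Kyoto cells synchronized by double thymidine or nocodazole block, proteins quantified by TMT10plex mass spectrometry, three independent biological replicates.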
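Throughout, for solubility change mitosis vs G1/S (difference of NP-40 vs SDS log2 ratios): synchronized HeLa Kyoto cells (double thymidine block for G1/S, nocodazole release for mitosis), protein amounts in NP-40 versus SDS lysates quantified by mass spectrometry, three biological replicates.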
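Throughout, for solubility in G1/S (NP-40 vs SDS abundance): HeLa Kyoto cells arrested at G1/S by double thymidine block, proteins quantified by TMT10plex mass spectrometry in mild NP-40 versus SDS extracts, three biological replicates.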
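Throughout, for thermal stability score vs G1/S (z-score of summed log2 fold changes over temperatures): synchronized HeLa Kyoto cells, proteins quantified by TMT10plex mass spectrometry, three biological replicates, mitosis taken 0.5 h after nocodazole release, G1/S directly after double thymidine block.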

Sequence of YES1 (chain, as listed by the source): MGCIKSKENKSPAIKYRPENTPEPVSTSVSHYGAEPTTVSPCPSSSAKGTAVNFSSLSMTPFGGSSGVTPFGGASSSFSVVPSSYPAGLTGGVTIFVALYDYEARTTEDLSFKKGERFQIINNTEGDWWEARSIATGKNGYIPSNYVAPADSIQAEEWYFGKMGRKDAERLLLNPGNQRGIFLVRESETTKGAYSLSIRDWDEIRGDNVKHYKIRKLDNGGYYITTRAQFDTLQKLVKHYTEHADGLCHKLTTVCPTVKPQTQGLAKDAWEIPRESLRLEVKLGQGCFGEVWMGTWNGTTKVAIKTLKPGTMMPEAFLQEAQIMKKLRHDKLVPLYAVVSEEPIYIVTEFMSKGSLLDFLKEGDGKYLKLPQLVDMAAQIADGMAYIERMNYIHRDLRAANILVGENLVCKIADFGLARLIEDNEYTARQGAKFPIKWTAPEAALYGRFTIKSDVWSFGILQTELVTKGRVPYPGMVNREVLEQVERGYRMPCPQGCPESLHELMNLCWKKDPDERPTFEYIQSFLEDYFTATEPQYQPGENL

| Substance | solubility in G1/S (log2) [1] | solubility change mitosis (log2) [2] | thermal stability score [3, 5] | thermal stability score ([3]; cell cycle stage: mitosis) | melting temperature ([4]; cell cycle stage: G1/S) | melting temperature ([4]; cell cycle stage: mitosis) |
| --- | --- | --- | --- | --- | --- | --- |
| MAASVAAAARRLRRAIRRSPAWRGLSHRPLSSEPPAAKASAVRAAFLNFFRDRHGHRLVPSASVRPRGDPSLLFVNAGMNQFKPIFLGTVDPRSEMAGFRRVANSQKCVRAGGHHNDLEDVGRDLSHHTFFEMLGNWAFGGEYFKEEACNMAWELLTQVYGIPEERLWISYFDGDPKAGLDPDLETRDIWLSLGVPASRVLSFGPQENFWEMGDTGPCGPCTEIHYDLAGGVGAPQLVELWNLVFMQHNREADGSLQPLPQRHVDTGMGLERLVAVLQGKHSTYDTDLFSPLLNAIQQGCRAPPYLGRVGVADEGRTDTAYRVVADHIRTLSVCISDGIFPGMSGPPLVLRRILRRAVRFSMEILKAPPGFLGSLVPVVVETLGDAYPELQRNSAQIANLVSEDEAAFLASLERGRRIIDRTLRTLGPSDMFPAEVAWSLSLCGDLGLPLDMVELMLEEKGVQLDSAGLERLAQEEAQHRARQAEPVQKQGLWLDVHALGELQRQGVPPTDDSPKYNYSLRPSGSYEFGTCEAQVLQLYTEDGTAVASVGKGQRCGLLLDRTNFYAEQGGQASDRGYLVRAGQEDVLFPVARAQVCGGFILHEAVAPECLRLGDQVQLHVDEAWRLGCMAKHTATHLLNWALRQTLGPGTEQQGSHLNPEQLRLDVTTQTPLTPEQLRAVENTVQEAVGQDEAVYMEEVPLALTAQVPGLRSLDEVYPDPVRVVSVGVPVAHALDPASQAALQTSVELCCGTHLLRTGAVGDLVIIGDRQLSKGTTRLLAVTGEQAQQARELGQSLAQEVKAATERLSLGSRDVAEALRLSKDIGRLIEAVETAVMPQWQRRELLATVKMLQRRANTAIRKLQMGQAAKKTQELLERHSKGPLIVDTVSAESLSVLVKVVRQLCEQAPSTSVLLLSPQPMGKVLCACQVAQGAMPTFTAEAWALAVCSHMGGKAWGSRVVAQGTGSTTDLEAALSIAQTYALSQL [AARS2] | -0.0312 | -0.0878 | -0.609 | 0.833 | 49.9 °C | 50 °C |
| MAGGGAGDPGLGAAAAPAPETREHLFKVLVIGELGVGKTSIIKRYVHQLFSQHYRATIGVDFALKVLNWDSRTLVRLQLWDIAGQERFGNMTRVYYKEAVGAFVVFDISRSSTFEAVLKWKSDLDSKVHLPNGSPIPAVLLANKCDQNKDSSQSPSQVDQFCKEHGFAGWFETSAKDNINIEEAARFLVEKILVNHQSFPNEENDVDKIKLDQETLRAENKSQCC [RAB32] | -0.00216 | -0.0818 | 4.46 | 2.79 | 51.8 °C | 53.4 °C |
| MSASSLLEQRPKGQGNKVQNGSVHQKDGLNDDDFEPYLSPQARPNNAYTAMSDSYLPSYYSPSIGFSYSLGEAAWSTGGDTAMPYLTSYGQLSNGEPHFLPDAMFGQPGALGSTPFLGQHGFNFFPSGIDFSAWGNNSSQGQSTQSSGYSSNYAYAPSSLGGAMIDGQSAFANETLNKAPGMNTIDQGMAALKLGSTEVASNVPKVVGSAVGSGSITSNIVASNSLPPATIAPPKPASWADIASKPAKQQPKLKTKNGIAGSSLPPPPIKHNMDIGTWDNKGPVAKAPSQALVQNIGQPTQGSPQPVGQQANNSPPVAQASVGQQTQPLPPPPPQPAQLSVQQQAAQPTRWVAPRNRGSGFGHNGVDGNGVGQSQAGSGSTPSEPHPVLEKLRSINNYNPKDFDWNLKHGRVFIIKSYSEDDIHRSIKYNIWCSTEHGNKRLDAAYRSMNGKGPVYLLFSVNGSGHFCGVAEMKSAVDYNTCAGVWSQDKWKGRFDVRWIFVKDVPNSQLRHIRLENNENKPVTNSRDTQEVPLEKAKQVLKIIASYKHTTSIFDDFSHYEKRQEEEESVKKERQGRGK [YTHDF2] | 0.00424 | 0.0349 | -0.975 | -1.92 | 51 °C | 50.7 °C |
| YES1 | -0.536 | 0.0165 | 0.418 | 0.409 | 51.2 °C | 50.9 °C |
| MGTPRAQHPPPPQLLFLILLSCPWIQGLPLKEEEILPEPGSETPTVASEALAELLHGALLRRGPEMGYLPGSDRDPTLATPPAGQTLAVPSLPRATEPGTGPLTTAVTPNGVRGAGPTAPELLTPPPGTTAPPPPSPASPGPPLGPEGGEEETTTTIITTTTVTTTVTSPVLCNNNISEGEGYVESPDLGSPVSRTLGLLDCTYSIHVYPGYGIEIQVQTLNLSQEEELLVLAGGGSPGLAPRLLANSSMLGEGQVLRSPTNRLLLHFQSPRVPRGGGFRIHYQAYLLSCGFPPRPAHGDVSVTDLHPGGTATFHCDSGYQLQGEETLICLNGTRPSWNGETPSCMASCGGTIHNATLGRIVSPEPGGAVGPNLTCRWVIEAAEGRRLHLHFERVSLDEDNDRLMVRSGGSPLSPVIYDSDMDDVPERGLISDAQSLYVELLSETPANPLLLSLRFEAFEEDRCFAPFLAHGNVTTTDPEYRPGALATFSCLPGYALEPPGPPNAIECVDPTEPHWNDTEPACKAMCGGELSEPAGVVLSPDWPQSYSPGQDCVWGVHVQEEKRILLQVEILNVREGDMLTLFDGDGPSARVLAQLRGPQPRRRLLSSGPDLTLQFQAPPGPPNPGLGQGFVLHFKEVPRNDTCPELPPPEWGWRTASHGDLIRGTVLTYQCEPGYELLGSDILTCQWDLSWSAAPPACQKIMTCADPGEIANGHRTASDAGFPVGSHVQYRCLPGYSLEGAAMLTCYSRDTGTPKWSDRVPKCALKYEPCLNPGVPENGYQTLYKHHYQAGESLRFFCYEGFELIGEVTITCVPGHPSQWTSQPPLCKVTQTTDPSRQLEGGNLALAILLPLGLVIVLGSGVYIYYTKLQGKSLFGFSGSHSYSPITVESDFSNPLYEAGDTREYEVSI [SEZ6L2] | -0.174 | 0.0248 | -0.928 | -1.52 | 53.7 °C | 54.8 °C |
| USP9X | -0.226 | -0.134 | -0.0892 | 0.618 | 50.4 °C | 50.6 °C |
